From article PMC5124963, “Negative feedback regulation of ABA biosynthesis in peanut (Arachis hypogaea): a transcription factor complex inhibits AhNCED1 expression during water stress”

Target: T1, GST-AhAREB1 (Arachis hypogaea, UniProt G4X5C6 1-445)
T1 sequence: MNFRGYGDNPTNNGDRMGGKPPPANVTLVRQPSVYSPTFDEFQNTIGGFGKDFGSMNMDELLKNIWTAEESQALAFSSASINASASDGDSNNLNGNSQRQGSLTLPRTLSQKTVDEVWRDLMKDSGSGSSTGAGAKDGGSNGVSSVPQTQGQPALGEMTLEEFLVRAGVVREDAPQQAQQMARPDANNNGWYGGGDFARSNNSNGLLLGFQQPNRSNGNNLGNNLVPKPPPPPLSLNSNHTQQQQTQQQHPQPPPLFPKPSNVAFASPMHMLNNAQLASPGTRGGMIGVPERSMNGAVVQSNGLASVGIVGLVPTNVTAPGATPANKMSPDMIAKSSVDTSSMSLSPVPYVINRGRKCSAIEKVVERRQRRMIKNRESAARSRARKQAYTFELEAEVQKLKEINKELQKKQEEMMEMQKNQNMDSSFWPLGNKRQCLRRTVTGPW
Assay: EMSA; LightShift Chemiluminescent EMSA kit (Pierce); buffer, salt, pH and temperature not stated
Details: protein: recombinant; tags: N-terminal GST (pGEX-4T-1); chain copies: 2; label: biotin

B1: WT probe, AhNCED1 promoter ABRE/NACRE (-1367) (dsDNA)
DNA 1: CTCATCAATTATCACGTGTGATTGCTCTCA
DNA 2: TGAGAGCAATCACACGTGATAATTGATGAG
**Q.** Does B1 bind?
**A.** binds
